{"source": "the RNAGym collection of RNA variant scans (doi:10.7554/elife.80360)", "parents": {"B1": {"name": "Hairpin Ribozyme (parent)", "chain": "GUCCUCUUUCACGUGCGCGUGAAAGAGAGAAGUGAACCAGAGAAACACACGUUGUGGUAUAUUACCUGGUA"}}}
{"variants_of": "B1", "experiment": "self-cleavage, relative activity (ratio to wild type); higher = more cleavage; co-transcriptional"}
{"variant": "GUCCUCUUUCACGUGCGCGUGAAAGAGAGAAGUGAACCAGAGACACACCCGUUGUGGUAUAUUACCUGGUA", "self-cleavage": 0.103}
{"variant": "GUCCUCUUUCACGUGCGCGUGAAAGAGAGAAGUGAACCAGAGACACACACGUUGUGGUAUAUUACCUAGUA", "self-cleavage": 0.103}
{"variant": "GUCCUCUUUCACGUGCGCGUGAAAGAGAGAAGUGAACCAGAGGAACACACGUGGUGGUAUAUUACCUGGUA", "self-cleavage": 0.226}
{"variant": "GUCCUCUUUCACGUGCGCGUGAAAGAGAGAAGUGAACCAGAGACACACACGUUGUGGUAUAUUGCCUGGUA", "self-cleavage": 0.141}
{"variant": "GUCCUCUUUCACGUGCGCGUGAAAGAGAGAAGUGAACCAGAGACACACACGUUGUGGUAUAUUUCCUGGUA", "self-cleavage": 0.155}
{"variant": "GUCCUCUUUCACGUGCGCGUGAAAGAGAGAAGUGAACCAGAGACACACACGUUGUGGUAUAUUCCCUGGUA", "self-cleavage": 0.0397}
{"variant": "GUCCUCUUUCACGUGCGCGUGAAAGAGAGAAGUGAACCAGAGACUCACACGUUGUGGUAUAUUACCUGGUA", "self-cleavage": 0.0709}
{"variant": "GUCCUCUUUCACGUGCGCGUGAAAGAGAGAAGUGAACCAGAGACACACACGUUGUGGUAGAUUACCUGGUA", "self-cleavage": 0.0874}
{"variant": "GUCCUCUUUCACGUGCGCGUGAAAGAGAGAAGUGAACCAGAGGAACACACGUUGGGGUAUAUUACCUGGUA", "self-cleavage": 0.128}
{"variant": "GUCCUCUUUCACGUGCGCGUGAAAGAGAGAAGUGAACCAGAGACACACACGUUGUGGUAUAUUAUCUGGUA", "self-cleavage": 0.142}
{"variant": "GUCCUCUUUCACGUGCGCGUGAAAGAGAGAAGUGAACCAGAGACACACACGUUGUCGUAUAUUACCUGGUA", "self-cleavage": 0.0706}
{"variant": "GUCCUCUUUCACGUGCGCGUGAAAGAGAGAAGUGAACCAGAGUAACACACGUUGUGGUAUAUUACCUGGUC", "self-cleavage": 0.396}
{"variant": "GUCCUCUUUCACGUGCGCGUGAAAGAGAGAAGUGAACCAGAGGAACACUCGUUGUGGUAUAUUACCUGGUA", "self-cleavage": 0.197}
{"variant": "GUCCUCUUUCACGUGCGCGUGAAAGAGAGAAGUGAACCAGAGUAACACACGUUGUGGUAUAUUAACUGGUA", "self-cleavage": 0.0905}
{"variant": "GUCCUCUUUCACGUGCGCGUGAAAGAGAGAAGUGAACCAGAGACACACACGUUGUGGUAUAUUACCUGUUA", "self-cleavage": 0.167}
{"variant": "GUCCUCUUUCACGUGCGCGUGAAAGAGAGAAGUGAACCAGAGACACACACGUUGUGGUAUAUUACCUGCUA", "self-cleavage": 0.141}
{"variant": "GUCCUCUUUCACGUGCGCGUGAAAGAGAGAAGUGAACCAGAGUAACACACGUUAUGGUAUAUUACCUGGUA", "self-cleavage": 0.128}
{"variant": "GUCCUCUUUCACGUGCGCGUGAAAGAGAGAAGUGAACCAGAGUAACACACGUUCUGGUAUAUUACCUGGUA", "self-cleavage": 0.0498}
{"variant": "GUCCUCUUUCACGUGCGCGUGAAAGAGAGAAGUGAACCAGAGUAACACACGUUGUGGUAUCUUACCUGGUA", "self-cleavage": 0.123}
{"variant": "GUCCUCUUUCACGUGCGCGUGAAAGAGAGAAGUGAACCAGAGUAACACACGUUGUGGUAUGUUACCUGGUA", "self-cleavage": 0.144}
{"variant": "GUCCUCUUUCACGUGCGCGUGAAAGAGAGAAGUGAACCAGAGUAACACACGUUGUGGUAUAUUACUUGGUA", "self-cleavage": 0.162}
{"variant": "GUCCUCUUUCACGUGCGCGUGAAAGAGAGAAGUGAACCAGAGUAACACACGUUGUGGUAUAUUACAUGGUA", "self-cleavage": 0.0293}
{"variant": "GUCCUCUUUCACGUGCGCGUGAAAGAGAGAAGUGAACCAGAGUAACAAACGUUGUGGUAUAUUACCUGGUA", "self-cleavage": 0.206}
{"variant": "GUCCUCUUUCACGUGCGCGUGAAAGAGAGAAGUGAACCAGAGACACACACGUUGUGGUAUAUUACUUGGUA", "self-cleavage": 0.107}
{"variant": "GUCCUCUUUCACGUGCGCGUGAAAGAGAGAAGUGAACCAGAGACACACACGUUGUGGUAUAUUACAUGGUA", "self-cleavage": 0.215}
{"variant": "GUCCUCUUUCACGUGCGCGUGAAAGAGAGAAGUGAACCAGAGACACACACGUUGUGGUAUAUUACGUGGUA", "self-cleavage": 0.0764}
{"variant": "GUCCUCUUUCACGUGCGCGUGAAAGAGAGAAGUGAACCAGAGGAACACACGUUGUGGUAUAUUACCCGGUA", "self-cleavage": 0.153}
{"variant": "GUCCUCUUUCACGUGCGCGUGAAAGAGAGAAGUGAACCAGAGGAACACACGUUGUGGUAUAUUACCGGGUA", "self-cleavage": 0.207}
{"variant": "GUCCUCUUUCACGUGCGCGUGAAAGAGAGAAGUGAACCAGAGUAACACACGUUGUGGUAUAUUACCUGCUA", "self-cleavage": 0.119}
{"variant": "GUCCUCUUUCACGUGCGCGUGAAAGAGAGAAGUGAACCAGAGUAACACACGUUGUGGUAUAUUACCUGAUA", "self-cleavage": 0.119}
{"variant": "GUCCUCUUUCACGUGCGCGUGAAAGAGAGAAGUGAACCAGAGACACACACGUUGUGUUAUAUUACCUGGUA", "self-cleavage": 0.0814}
{"variant": "GUCCUCUUUCACGUGCGCGUGAAAGAGAGAAGUGAACCAGAGGAACACACGUUGUGGUAUAUUAGCUGGUA", "self-cleavage": 0.117}
{"variant": "GUCCUCUUUCACGUGCGCGUGAAAGAGAGAAGUGAACCAGAGGAACACACGUUGUGGUAUAUUACCUGAUA", "self-cleavage": 0.0947}
{"variant": "GUCCUCUUUCACGUGCGCGUGAAAGAGAGAAGUGAACCAGAGUAACACACGUUGGGGUAUAUUACCUGGUA", "self-cleavage": 0.232}
{"variant": "GUCCUCUUUCACGUGCGCGUGAAAGAGAGAAGUGAACCAGAGUAACACACGAUGUGGUAUAUUACCUGGUA", "self-cleavage": 0.229}
{"variant": "GUCCUCUUUCACGUGCGCGUGAAAGAGAGAAGUGAACCAGAGUAACACACGUUGUGUUAUAUUACCUGGUA", "self-cleavage": 0.152}
{"variant": "GUCCUCUUUCACGUGCGCGUGAAAGAGAGAAGUGAACCAGAGUAACACACGUUGUGAUAUAUUACCUGGUA", "self-cleavage": 0.119}
{"variant": "GUCCUCUUUCACGUGCGCGUGAAAGAGAGAAGUGAACCAGAGUGACACACGUUGUGGUAUAUUACCUGGUA", "self-cleavage": 0.163}
